How the values were obtained:
HeLa Kyoto [1] = test: solubility in G1/S (NP-40 vs SDS abundance) (log2 ratio); higher = more soluble; details: cell cycle stage: G1/S
HeLa Kyoto [2] = test: melting temperature (median over replicates), in situ; higher = more thermally stable
HeLa Kyoto [3] = test: solubility change mitosis vs G1/S (difference of NP-40 vs SDS log2 ratios) (log2 ratio difference); higher = more soluble in mitosis
HeLa Kyoto [4] = test: thermal stability score vs G1/S (z-score of summed log2 fold changes over temperatures); higher = more thermally stable than in G1/S
[5] = cell cycle stage: early G1 (4.5 h after nocodazole release)
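Wherever melting temperature (median over replicates), in situ is given: HeLa Kyoto cells synchronized by double thymidine or nocodazole block, proteins quantified by TMT10plex mass spectrometry, three independent biological replicates.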
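Wherever solubility change mitosis vs G1/S (difference of NP-40 vs SDS log2 ratios) is given: synchronized HeLa Kyoto cells (double thymidine block for G1/S, nocodazole release for mitosis), protein amounts in NP-40 versus SDS lysates quantified by mass spectrometry, three biological replicates.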
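Wherever solubility in G1/S (NP-40 vs SDS abundance) is given: HeLa Kyoto cells arrested at G1/S by double thymidine block, proteins quantified by TMT10plex mass spectrometry in mild NP-40 versus SDS extracts, three biological replicates.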
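Wherever thermal stability score vs G1/S (z-score of summed log2 fold changes over temperatures) is given: synchronized HeLa Kyoto cells, proteins quantified by TMT10plex mass spectrometry, three biological replicates, mitosis taken 0.5 h after nocodazole release, G1/S directly after double thymidine block.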

| Sequence | solubility in G1/S (log2) (HeLa Kyoto [1]) | melting temperature (HeLa Kyoto [2]; cell cycle stage: G1/S) [°C] | melting temperature (HeLa Kyoto [2]; cell cycle stage: mitosis) [°C] | solubility change mitosis (log2) (HeLa Kyoto [3]) | thermal stability score (HeLa Kyoto [4]; [5]) | thermal stability score (HeLa Kyoto [4]; cell cycle stage: mitosis) |
| --- | --- | --- | --- | --- | --- | --- |
| MEGAGENAPESSSSAPGSEESARDPQVPPPEEESGDCARSLEAVPKKLCGYLSKFGGKGPIRGWKSRWFFYDERKCQLYYSRTAQDANPLDSIDLSSAVFDCKADAEEGIFEIKTPSRVITLKAATKQAMLYWLQQLQMKRWEFHNSPPAPPATPDAALAGNGPVLHLELGQEEAELEEFLCPVKTPPGLVGVAAALQPFPALQNISLKHLGTEIQNTMHNIRGNKQAQGTGHEPPGEDSPQSGEPQREEQPLASDASTPGREPEDSPKPAPKPSLTISFAQKAKRQNNTFPFFSEGITRNRTAQEKVAALEQQVLMLTKELKSQKELVKILHKALEAAQQEKRASSAYLAAAEDKDRLELVRHKVRQIAELGRRVEALEQERESLAHTASLREQQVQELQQHVQLLMDKNHAKQQVICKLSEKVTQDFTHPPDQSPLRPDAANRDFLSQQGKIEHLKDDMEAYRTQNCFLNSEIHQVTKIWRKVAEKEKALLTKCAYLQARNCQVESKYLAGLRRLQEALGDEASECSELLRQLVQEALQWEAGEASSDSIELSPISKYDEYGFLTVPDYEVEDLKLLAKIQALESRSHHLLGLEAVDRPLRERWAALGDLVPSAELKQLLRAGVPREHRPRVWRWLVHLRVQHLHTPGCYQELLSRGQAREHPAARQIELDLNRTFPNNKHFTCPTSSFPDKLRRVLLAFSWQNPTIGYCQGLNRLAAIALLVLEEEESAFWCLVAIVETIMPADYYCNTLTASQVDQRVLQDLLSEKLPRLMAHLGQHHVDLSLVTFNWFLVVFADSLISNILLRVWDAFLYEGTKVVFRYALAIFKYNEKEILRLQNGLEIYQYLRFFTKTISNSRKLMNIAFNDMNPFRMKQLRQLRMVHRERLEAELRELEQLKAEYLERRASRRRAVSEGCASEDEVEGEA [TBC1D2] | -0.179 | 49.7 | 49.4 | -0.0396 | 1.39 | 0.724 |
| MVEADRPGKLFIGGLNTETNEKALEAVFGKYGRIVEVLLMKDRETNKSRGFAFVTFESPADAKDAARDMNGKSLDGKAIKVEQATKPSFESGRRGPPPPPRSRGPPRGLRGGRGGSGGTRGPPSRGGHMDDGGYSMNFNMSSSRGPLPVKRGPPPRSGGPPPKRSAPSGPVRSSSGMGGRAPVSRGRDSYGGPPRREPLPSRRDVYLSPRDDGYSTKDSYSSRDYPSSRDTRDYAPPPRDYTYRDYGHSSSRDDYPSRGYSDRDGYGRDRDYSDHPSGGSYRDSYESYGNSRSAPPTRGPPPSYGGSSRYDDYSSSRDGYGGSRDSYSSSRSDLYSSGRDRVGRQERGLPPSMERGYPPPRDSYSSSSRGAPRGGGRGGSRSDRGGGRSRY [RBMX] | -0.567 | 47.5 | 50.5 | 0.777 | -0.25 | 7.17 |
| MAAPKGSLWVRTQLGLPPLLLLTMALAGGSGTASAEAFDSVLGDTASCHRACQLTYPLHTYPKEEELYACQRGCRLFSICQFVDDGIDLNRTKLECESACTEAYSQSDEQYACHLGCQNQLPFAELRQEQLMSLMPKMHLLFPLTLVRSFWSDMMDSAQSFITSSWTFYLQADDGKIVIFQSKPEIQYAPHLEQEPTNLRESSLSKMSYLQMRNSQAHRNFLEDGESDGFLRCLSLNSGWILTTTLVLSVMVLLWICCATVATAVEQYVPSEKLSIYGDLEFMNEQKLNRYPASSLVVVRSKTEDHEEAGPLPTKVNLAHSEI [TMEM59] | 0.0662 | 54.8 | 53.1 | 0.0194 | 0.0515 | -0.215 |
| MGSKGVYQYHWQSHNVKHSGVDDMVLLSKITENSIVENLKKRYMDDYIFTYIGSVLISVNPFKQMPYFGEKEIEMYQGAAQYENPPHIYALADNMYRNMIIDRENQCVIISGESGAGKTVAAKYIMSYISRVSGGGTKVQHVKDIILQSNPLLEAFGNAKTVRNNNSSRFGKYFEIQFSPGGEPDGGKISNFLLEKSRVVMRNPGERSFHIFYQLIEGASAEQKHSLGITSMDYYYYLSLSGSYKVDDIDDRREFQETLHAMNVIGIFAEEQTLVLQIVAGILHLGNISFKEVGNYAAVESEEFLAFPAYLLGINQDRLKEKLTSRQMDSKWGGKSESIHVTLNVEQACYTRDALAKALHARVFDFLVDSINKAMEKDHEEYNIGVLDIYGFEIFQKNGFEQFCINFVNEKLQQIFIELTLKAEQEEYVQEGIRWTPIEYFNNKIVCDLIENKVNPPGIMSILDDVCATMHAVGEGADQTLLQKLQMQIGSHEHFNSWNQGFIIHHYAGKVSYDMDGFCERNRDVLFMDLIELMQSSELPFIKSLFPENLQADKKGRPTTAGSKIKKQANDLVSTLMKCTPHYIRCIKPNETKKPRDWEESRVKHQVEYLGLKENIRVRRAGYAYRRIFQKFLQRYAILTKATWPSWQGEEKQGVLHLLQSVNMDSDQFQLGRSKVFIKAPESLFLLEEMRERKYDGYARVIQKSWRKFVARKKYVQMREEASDLLLNKKERRRNSINRNFIGDYIGMEEHPELQQFVGKREKIDFADTVTKYDRRFKGVKRDLLLTPKCLYLIGREKVKQGPDKGLVKEVLKRKIEIERILSVSLSTMQDDIFILHEQEYDSLLESVFKTEFLSLLAKRYEEKTQKQLPLKFSNTLELKLKKENWGPWSAGGSRQVQFHQGFGDLAVLKPSNKVLQVSIGPGLPKNSRPTRRNTTQNTGYSSGTQNANYPVRAAPPPPGYHQNGVIRNQYVPYPHAPGSQRSNQKSLYTSMARPPLPRQQSTSSDRVSQTPESLDFLKVPDQGAAGVRRQTTSRPPPAGGRPKPQPKPKPQVPQCKALYAYDAQDTDELSFNANDIIDIIKEDPSGWWTGRLRGKQGLFPNNYVTKI [MYO1E] | -0.131 | 49.6 | 49.5 | -0.207 | -0.0451 | 1.13 |

Reference: the supplement of paper PMC5998384
